Test results as given in PMC9198467 (The Journal of Biological Chemistry, 2022).

Target: His-DnaB helicase (E. coli, UniProt P0ACB0 1-471)
Assay: pull-down

His-DnaB helicase, sequence (P0ACB0 whole entry): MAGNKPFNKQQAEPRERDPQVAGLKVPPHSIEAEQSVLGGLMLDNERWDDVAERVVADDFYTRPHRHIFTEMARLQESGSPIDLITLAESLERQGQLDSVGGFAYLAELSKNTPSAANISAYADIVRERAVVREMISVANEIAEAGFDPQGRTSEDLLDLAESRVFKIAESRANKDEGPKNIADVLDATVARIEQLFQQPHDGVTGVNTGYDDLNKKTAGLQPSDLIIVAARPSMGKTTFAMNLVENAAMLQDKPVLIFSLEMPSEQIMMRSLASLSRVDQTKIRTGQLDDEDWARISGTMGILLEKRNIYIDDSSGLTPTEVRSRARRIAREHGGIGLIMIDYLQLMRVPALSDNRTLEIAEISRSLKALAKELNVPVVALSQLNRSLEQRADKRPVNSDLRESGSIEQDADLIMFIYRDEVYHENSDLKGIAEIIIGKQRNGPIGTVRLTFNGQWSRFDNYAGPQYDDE

binding result: binds
B1: Escherichia coli DnaA, ATP-bound form (ATP–DnaA), wild type (natural protein, E. coli, UniProt P03004 1-467, looked up)
chain: MSLSLWQQCLARLQDELPATEFSMWIRPLQAELSDNTLALYAPNRFVLDWVRDKYLNNINGLLTSFCGADAPQLRFEVGTKPVTQTPQAAVTSNVAAPAQVAQTQPQRAAPSTRSGWDNVPAPAEPTYRSNVNVKHTFDNFVEGKSNQLARAAARQVADNPGGAYNPLFLYGGTGLGKTHLLHAVGNGIMARKPNAKVVYMHSERFVQDMVKALQNNAIEEFKRYYRSVDALLIDDIQFFANKERSQEEFFHTFNALLEGNQQIILTSDRYPKEINGVEDRLKSRFGWGLTVAIEPPELETRVAILMKKADENDIRLPGEVAFFIAKRLRSNVRELEGALNRVIANANFTGRAITIDFVREALRDLLALQEKLVTIDNIQKTVAEYYKIKVADLLSKRRSRSVARPRQMAMALAKELTNHSLPEIGDAFGGRDHTTVLHACRKIEQLREESHDIKEDFSNLIRTLSS
